In patent publication US20190367631A1 (Regeneron, published 2019):
Numbering of substitutions follows the chain as printed. In names and notes the source's numbering stands. One block for each binder: values may come before it.

Assays:
[1] = biological target: T1, human MSR1 extracellular domain expressed with a N-terminal nonahistidine tag (human, UniProt P21757 77-451); experiment: competition ELISA, plate-coated His9-hMSR1; 100 nM antibody, competitor ligand Ac-LDL
T1 construct: extracellular domain; also called His9-hMSR1; His-hMSR1
T1 sequence: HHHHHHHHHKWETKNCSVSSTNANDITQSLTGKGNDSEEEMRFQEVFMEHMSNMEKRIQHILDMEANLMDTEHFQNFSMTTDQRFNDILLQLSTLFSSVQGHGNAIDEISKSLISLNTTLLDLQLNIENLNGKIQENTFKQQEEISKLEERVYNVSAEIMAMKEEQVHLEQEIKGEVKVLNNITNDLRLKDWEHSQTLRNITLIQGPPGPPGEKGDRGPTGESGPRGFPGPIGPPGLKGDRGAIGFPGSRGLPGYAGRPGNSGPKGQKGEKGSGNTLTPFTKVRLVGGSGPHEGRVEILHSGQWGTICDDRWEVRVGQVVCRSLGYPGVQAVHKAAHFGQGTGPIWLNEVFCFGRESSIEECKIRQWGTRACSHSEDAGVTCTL
Description: (§1) Buffer alone was also added to wells on each coat. […] This assay was conducted in four different assay runs.
(§2) Data analysis was performed using a sigmoidal dose-response model within Prism™ software (GraphPad).

[2] = biological target: T1, human MSR1 extracellular domain …; experiment: competition ELISA, plate-coated His9-hMSR1; 300 nM antibody, competitor ligand biot-AGE-BSA
Description: as §1, §2

[3] = biological target: T1, human MSR1 extracellular domain …; experiment: competition ELISA, plate-coated His9-hMSR1; 1 µM antibody, competitor ligand 10 nM Ox-LDL
Description: as §1, §2

[4] = biological target: T2, full length monkey MSR1 on HEK293.mfMSR1 cells (Macaca fascicularis, UniProt A0A2K5UWE2 1-451); experiment: ECL cell binding, HEK293.mfMSR1 cells, 11 nM
T2 construct: whole, on cells
T2 sequence: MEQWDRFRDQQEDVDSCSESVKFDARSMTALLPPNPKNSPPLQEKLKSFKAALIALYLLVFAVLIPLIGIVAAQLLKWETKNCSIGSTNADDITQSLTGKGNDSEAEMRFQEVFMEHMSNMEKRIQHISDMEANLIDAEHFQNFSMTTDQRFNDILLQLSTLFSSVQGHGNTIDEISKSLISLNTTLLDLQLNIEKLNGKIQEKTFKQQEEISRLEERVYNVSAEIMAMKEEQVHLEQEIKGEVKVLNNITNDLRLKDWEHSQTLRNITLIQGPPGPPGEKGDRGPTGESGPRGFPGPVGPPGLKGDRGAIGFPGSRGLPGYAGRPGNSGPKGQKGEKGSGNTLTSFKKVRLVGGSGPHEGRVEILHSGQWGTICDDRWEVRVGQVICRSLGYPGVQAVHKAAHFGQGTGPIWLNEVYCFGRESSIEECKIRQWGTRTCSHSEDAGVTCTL

[5] = biological target: T3, full length human MSR1 with a C-terminal Myc tag, on HEK293.Myc.hMSR1 cells (human, UniProt P21757 1-451); experiment: ECL cell binding, HEK293.Myc.hMSR1 cells, 11 nM
T3 construct: whole, on cells; stably expressed on engineered HEK293 cells; not shown: C-terminal Myc tag
T3 sequence (looked up): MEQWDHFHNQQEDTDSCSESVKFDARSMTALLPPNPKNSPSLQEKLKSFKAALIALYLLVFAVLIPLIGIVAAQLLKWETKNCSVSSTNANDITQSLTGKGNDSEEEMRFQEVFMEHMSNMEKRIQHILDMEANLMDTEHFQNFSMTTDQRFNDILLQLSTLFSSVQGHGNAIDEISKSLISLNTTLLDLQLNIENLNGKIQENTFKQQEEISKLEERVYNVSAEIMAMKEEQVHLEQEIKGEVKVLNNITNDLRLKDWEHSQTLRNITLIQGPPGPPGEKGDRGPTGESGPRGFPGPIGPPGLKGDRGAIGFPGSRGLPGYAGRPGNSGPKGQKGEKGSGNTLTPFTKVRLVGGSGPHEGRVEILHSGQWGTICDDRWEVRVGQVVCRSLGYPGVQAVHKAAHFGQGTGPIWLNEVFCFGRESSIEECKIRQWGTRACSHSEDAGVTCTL

[6] = biological target: T3, full length human MSR1 with a …; experiment: cell-based or functional assay
[7] = biological target: T4, mouse MSR1 on RAW264.7 cells (mouse, UniProt P30204 1-458); experiment: flow cytometry, RAW264.7 cells
T4 construct: whole, on cells; also called MSR1 positive RAW264.7 cells
T4 sequence (looked up): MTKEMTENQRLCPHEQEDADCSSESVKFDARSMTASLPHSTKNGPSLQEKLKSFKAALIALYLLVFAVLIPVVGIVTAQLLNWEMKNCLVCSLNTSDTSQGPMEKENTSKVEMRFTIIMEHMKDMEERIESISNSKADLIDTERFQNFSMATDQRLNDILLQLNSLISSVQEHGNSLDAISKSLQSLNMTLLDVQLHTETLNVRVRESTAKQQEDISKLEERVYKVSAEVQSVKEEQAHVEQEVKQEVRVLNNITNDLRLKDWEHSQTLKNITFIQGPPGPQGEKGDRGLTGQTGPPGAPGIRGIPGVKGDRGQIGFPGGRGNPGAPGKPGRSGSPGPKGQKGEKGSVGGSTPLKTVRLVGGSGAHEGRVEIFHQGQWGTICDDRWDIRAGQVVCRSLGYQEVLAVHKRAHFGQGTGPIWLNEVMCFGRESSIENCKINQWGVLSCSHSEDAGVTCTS
Description: To block binding to Fc receptors, RAW264.7 cells were incubated for 30 minutes at 4° C. with 500 pg/mL mouse IgG (Jackson ImmunoResearch, Cat #015-000-003) diluted in staining buffer, while B16F10.9 cells remained in staining buffer. […] The signal to noise (S/N) was determined by calculating the ratio of the anti-MSR1 antibodies or the control antibodies MFI to the unstained sample MFI (Table 11).

- ratio of binding signal (RLU) to isotype control [4]: 21 fold
- ratio of binding signal (RLU) to isotype control [5]: 22 fold
B2: H1xH27759P2 (antibody, V domains shown)
VH: EVQLVESGGGFVQPGGSLRLSCAASGFTFSSYAMSWVRQAPGKGLEWVSAISGTGSNTYYADSVKGRFTISRDNSKNTLYLQMNSLRAEDTAVYYCAKDRVTTVTYYFDYWGQGTLVTVSS
VL: not shown

- % Inhibition of Dil-Oxidized LDL uptake [6]: 26%
- IC50 of Dil-Oxidized LDL uptake inhibition [6]: > 100 nM
- ratio of binding signal (RLU) to isotype control [4]: 27 fold
- ratio of binding signal (RLU) to isotype control [5]: 78 fold
B5: H2aM21229N (antibody, mouse IgG2a, V domains shown)
VH: EVQLVESGGGLVKPGGSLRLSCAASGFTFSRYSMNWVRQAPGKGLEWVSSISSSSSYIYYGDTVKGRFTISRDNAKKSLYLQMNSLRAEDTAVYYCVRDRGQLVLYFDYWGQGTLVTVSS
VL: DIQMTQSPASLSTSIRDRVTITCRASLSISSFLNWFQQRPGKAPKLLIYVASNLQSGVPSRFSDSGSGTDFTLTISSLQPEDFATYYCQQNYSTPPITFGQGTRLEIK
notes: mouse IgG2a Fc

- % Inhibition of Dil-Acetylated LDL uptake [6]: 40%
- % Inhibition of Dil-Oxidized LDL uptake [6]: 69%
- IC50 of Dil-Acetylated LDL uptake inhibition [6]: > 170 nM
- IC50 of Dil-Oxidized LDL uptake inhibition [6]: > 16 nM
- ratio of binding signal (RLU) to isotype control [4]: 45 fold
- ratio of binding signal (RLU) to isotype control [5]: 35 fold
B6: H2aM25695N (antibody, mouse IgG2a, V domains shown)
VH: QVQLQESGPGLVKPSETLSLTCTVTGGSISRNYWSWIRQPPGKGLEWIGYIYYSGSINYNPSLKSRVTISVDMSKNQFSLKLNSVTAADTAVYYCARDRWNWKYGMDVWGQGTTVIVSS
VL: EIVLTQSPGTLSLSPGERATLSCRASQTVRNSYLAWYHQKPGQAPRLLIYGASSRATGIPDRFSGSGSGTDFTLTISRLEPEDFAVYYCQQYGSSYWTFGQGTKMEIKR
notes: mouse IgG2a Fc

- % Inhibition of Dil-Acetylated LDL uptake [6]: 10%
- % Inhibition of Dil-Oxidized LDL uptake [6]: 79%
- IC50 of Dil-Acetylated LDL uptake inhibition [6]: > 100 nM
- IC50 of Dil-Oxidized LDL uptake inhibition [6]: 3.1 nM
- ratio of binding signal (RLU) to isotype control [4]: 60 fold
- ratio of binding signal (RLU) to isotype control [5]: 66 fold
B8: H2aM21228N (antibody, mouse IgG2a, V domains shown)
VH: VQLVESGGGLVQPGGSLRLSCAASGFTFSDHYMDWVRQAPGKGLEWVGRTRNKANSHTTEYAASVSGRFTISRDDSKNSLYLQMNSLKTEDTAVYYCTRAGIIGTLFDYWGQGTLVTVSS
VL: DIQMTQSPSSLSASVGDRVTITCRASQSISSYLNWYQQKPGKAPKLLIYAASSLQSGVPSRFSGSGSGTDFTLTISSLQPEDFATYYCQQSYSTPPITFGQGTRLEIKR
notes: mouse IgG2a Fc

- ratio of binding signal (RLU) to isotype control [4]: 24 fold
- ratio of binding signal (RLU) to isotype control [5]: 26 fold
B9: H1xH29283P2 (antibody, V domains shown)
VH: QVQLVQSGTEVKKPGSSVKVSCKASGGTFSRYTFSWVRQAPGQGLEWMGGIIPIFGTTNYAQKFQGRVTITTDESTSTVYMELSSLRSEDTAVYYCTRGGRYGWFDPWGQGTLVTVSS
VL: not shown

- % Blocking [1]: -58%
- % Blocking [2]: -16%
- % Blocking [3]: -65%
B10: H1H27762P2-N297Q (antibody, V domains shown)
VH: B9 VH with T9A, T33D, F34I, T58S, T97A
VL: not shown
notes: Human IgG1 Fc with N297Q; also called H1H27762P-N297Q

- % Blocking [1]: -36%
- % Blocking [2]: -4%
- % Blocking [3]: -21%
B13: H1H27761P2-N297Q (antibody, V domains shown)
VH: EVQLVESGGDLVQPGGSLRLSCSASGFTFNIYAMSWVRQAPGKGLEWVSGISGSGGSTYYADSVKGRFTISRDNSKNTLYFQMNSLRVEDTAVYYCAKKISSSSYYYYAMDVWGQGTTVTVSS
VL: not shown
notes: Human IgG1 Fc with N297Q; also called H1H27761P-N297Q

Second part, the binder before the results:

B1: H1H27759P2-N297Q (antibody, human IgG1, V domains shown)
VH: B2 VH
VL: not shown
notes: Human IgG1 Fc with N297Q; also called H1H27759P-N297Q
- % Blocking [1]: -45%
- % Blocking [2]: -19%
- % Blocking [3]: -62%

B3: H1H27751P-N297Q (antibody, human IgG1, V domains shown)
VH: EVQLVESGGGLVQPGGSLRLSCAASGFTFSNYAMHWVRQAPGKGLEYVSAISSNGGSTYYADSVKGRITISRDNSKNTLYLQMGSLRAEDMAVYYCARGRPYYYYFGMDVWGQGTTVTVSS
VL: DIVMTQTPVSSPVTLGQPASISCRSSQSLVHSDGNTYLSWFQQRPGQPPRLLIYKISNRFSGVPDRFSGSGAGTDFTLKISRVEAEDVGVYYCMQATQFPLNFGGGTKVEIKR
notes: human IgG1 Fc with N297Q
- % Inhibition of Dil-Acetylated LDL uptake [6]: 59%
- % Inhibition of Dil-Oxidized LDL uptake [6]: 85%
- IC50 of Dil-Acetylated LDL uptake inhibition [6]: 1.6 nM
- IC50 of Dil-Oxidized LDL uptake inhibition [6]: 2.9 nM
- ratio of binding signal (RLU) to isotype control [4]: 49 fold
- ratio of binding signal (RLU) to isotype control [5]: 63 fold
- MFI [7]: 3820 MFI
- S/N (MFI over unstained MFI) [7]: 1

B4: H1H27756P-N297Q (antibody, V domains shown)
VH: QVQLVESGGGVVQPGRSLRLSCAASGFTFSNYDMHWVRQAPGKGLEWMAVISYDGINKYYADSVKGRFTISRDNSKNTLYLQMNSLRAEDTAVYYCAKGTYSWYFDLWGRGTLVTVSS
VL: not shown
notes: Human IgG1 Fc with N297Q
- % Blocking [1]: -54%
- % Blocking [2]: -8%
- % Blocking [3]: -45%

B7: H1H21234N (antibody, human IgG1, V domains shown)
VH: B6 VH with N58D, M73T, N83S, V85M
VL: B6 VL with S32N, A85T, Q90H, S94N, Y96P
notes: original human IgG1 Fc
- % Inhibition of Dil-Acetylated LDL uptake [6]: 36%
- % Inhibition of Dil-Oxidized LDL uptake [6]: 64%
- IC50 of Dil-Acetylated LDL uptake inhibition [6]: 0.71 nM
- IC50 of Dil-Oxidized LDL uptake inhibition [6]: 4.3 nM
- ratio of binding signal (RLU) to isotype control [4]: 31 fold
- ratio of binding signal (RLU) to isotype control [5]: 32 fold

B11: H1H27739P-N297Q (antibody, human IgG1, V domains shown)
VH: EVQLVESGGGLVQPGGSLRLSCTASGFTFSSYAMSWVRQAPGKGLEWVSAISGTGSSTYFTDSVKGRFAISRDNSKNTLYLQMNSLRAEDTAVYYCAKDGEWLSTVTLFDYWGQGTLVTVSS
VL: EIVMTQSPATLSVSPGERATLSCRASQSVSSNLAWYQQKPGQAPRLLIYGASTRATGIPARFSGSGSGTDFTLTISSLQSEDFALYYCQQYFIWPPHPTFGPGTKVDIKR
notes: human IgG1 Fc with N297Q
- % Inhibition of Dil-Oxidized LDL uptake [6]: 55%
- IC50 of Dil-Oxidized LDL uptake inhibition [6]: > 100 nM
- ratio of binding signal (RLU) to isotype control [4]: 20 fold
- ratio of binding signal (RLU) to isotype control [5]: 22 fold
- MFI [7]: 3270 MFI
- S/N (MFI over unstained MFI) [7]: 1

B12: H1H27760P2-N297Q (antibody, V domains shown)
VH: EVQLVESGGGLVQPGRSLRLSCAASGFTFDAYAMHWVRQAPGKGLEWVSGISWNSGSIGYADSVKGRFTISRDNAKNSLYLQMNSLREEDTALYYCAKDKILELYYYGMDVWGQGTTVTVSS
VL: not shown
notes: Human IgG1 Fc with N297Q; also called H1H27760P-N297Q
- % Blocking [1]: -43%
- % Blocking [2]: -4%
- % Blocking [3]: -47%
